Assay [1] has as its target snai1_human SNAI1 (UniProt O95863).
For assay [2] the target is unchanged. This is another data set of the same source.

Sequence of snai1_human SNAI1 (O95863 whole entry): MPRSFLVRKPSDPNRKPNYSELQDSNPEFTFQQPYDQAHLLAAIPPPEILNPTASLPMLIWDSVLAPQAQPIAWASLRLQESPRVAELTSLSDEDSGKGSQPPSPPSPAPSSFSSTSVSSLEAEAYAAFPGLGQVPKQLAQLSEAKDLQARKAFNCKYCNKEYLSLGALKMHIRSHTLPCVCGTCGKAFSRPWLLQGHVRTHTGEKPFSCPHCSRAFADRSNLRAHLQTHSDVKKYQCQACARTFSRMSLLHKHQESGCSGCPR

Regarding “Lysine-specific histone demethylase 1A (Homo sapiens) (from UniProt O60341) D555A”, the “effect of a mutation on the interaction” value in assay [1] is on record as “disrupting interaction”.

Consider “Lysine-specific histone demethylase 1A (Homo sapiens) (from UniProt O60341) D556A”, for which the “effect of a mutation on the interaction” value in assay [1] was “disrupting interaction”.

For the substance “Lysine-specific histone demethylase 1A (Homo sapiens) (from UniProt O60341) D553A”, the “effect of a mutation on the interaction” value in assay [1] is reported as “disrupting interaction”.

For “Lysine-specific histone demethylase 1A (Homo sapiens) (from UniProt O60341) E379A”, the “effect of a mutation on the interaction” value in assay [2] is listed as “disrupting interaction”.

In the case of “Lysine-specific histone demethylase 1A (Homo sapiens) (from UniProt O60341) D375A”, the “effect of a mutation on the interaction” value in assay [2] is reported as “disrupting interaction”.

(Values after IntAct's records for PubMed 20389281.)
